27 sequences from a protein production outcome set (Wang et al. 2014) can be followed below.

This data set in a line: label from the status in PepcDB records.
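Further: failed if final PepcDB status was selected cloned or expressed and not failed if soluble or beyond.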

Turning to “AGKQNEVELVAEKQLAFPLDEQTYYLSKSMFQFEENGKEYLHFENTQKSLYDIVIFDIENQQIAKRIPLHKTGPNGLPAVFGSRPSPDSQYILVAQNNISRLSSINSQGEIIRNYNFQTPEGRFTPLSFGSYYNAPAFIKDSCIFLRQEILKPDMKKEDWPRTHMFASQDLRTGEVKWIPIFYPPIFKEEYDNIAGGYGFSYDYNYKESRLVCGFFGYDSLMVTDDLKHIRWYNAKSRYLKSMKPKLGNSMEGINAIIKLNENPRYWHIMYDKYRNVYYRFAEMPYKLAPNESPYETPKGKEFSVIVLNADFEIIGETKFPGKKYFYKMSFVGREGLYISENNLENPQFDENKLVFTCFKIKNASPNK”, the protein production entry is “not failed”.
Regarding “AGVSDTAASVCITITAPSKAWNIAGLKCAQIIFSNPSDAEHWQQLSPVIKDGASTLGLIAAEAAYRYGTDFLNQEVAYLKNNHDFLLHEIPKRIPGAKITPMQATYLMWIDFRDTTIEGSPSEFFIEKAKVAMNDGAWFGEDGTGFCRLNFATSREVLEEAIDRMAKAVSHHT”, the protein production entry is listed as “failed”.
As to “AHKYKRAEVVQNALLELSHIATQVSSLEEFYLGVHHHLKQLISADNFFIATLDVNSGAISVPFFADEKDAHPSQLYPEQSLSTLLQQGLTGYVFRTGQTLLCDESKVDELVNAEEIVNLGSPCHLWLGVPIKHEDIVTAVLVVQTYDTNVSYGDIEVELMTFICHHITGVMERLKHQEQLEQAIQQ”, the protein production result was “not failed”.
On to “AHTKISPLGIDTLCFKVSTNPGQPLQPIAKVASGGELSRISLAIQVITAQKVDTPSLIFDEVDVGISGPTAAVVGKMLRTLGESTQVLCVTHLPQVAGCGHNQLFVAKHTKSGKTETQMRALNLEERVEELARLLGGTQITAHTLANAKELLNAA”, for which the protein production result was “failed”.
Under “AIAASALEQFVNNVRQLSAQGQMTQLCELINKSGELLAKNLSHLDTVLGALDIQEHSLGVLAVLFVKFSMPNIPDFETLFSQVQLFISTCNGEHIRYATDTFAGLCHQLTNALVERKQPLRGISILKQAIDKMQMNTNQLTSVHADLCQLCLLAKCFKPAVPFLELDMMDICKENGAYDAKHFLCYYYYGGMIYTGLKNFERALYFFEQAITTPAMAVSHIMLEAYKKYILVSLILHGKVQQLPKYTSQIVGRFIKPLSNAYHELAQIYATNNPAELRALVNKHSETFTRDNNSGLVKQCLSSLYKKNIQRLTKTFLTLSLQDMASRVQLSGPQEAEKYVLHMIEDGEIYASINQKDGMVCFHDNPEKYNNPAMLHKIDQEML” stands “not failed”.
For the sequence “AIAASLSDQSGSIGSEQTRPSGAIPVESLPPQALEQLIASLQQEVEQLADALQQLNFANQRWTLCKQSIEAFAEETTRVDLPGAQSRATDAISSTASAKPETSVEVNQNQRLLVPLSRSLYVLGRVINPERCLIDIGTGYHVERKLADAAEFFDRRLKHVRGSMRQLTLKIDQNQQQMQTIREILVRKLAGAQQAAEHT”, the protein production result was “failed”.
For “AIAEALWTNKIEDPLSLMSFTVPPLRLLSAAMWQVTERRQVKHYGMLEEFVSLVTETIPELLNQHQRAQLILGLRARHLLELCRGKHQGSLKEIQPHLKRLCRPRVNKEFADEDMEESEACFLDLVRTLISNPKEKEHYFQNIFPEEYGPKFDKNLHALMEDFLLKLDRMVSVPDLSETVSWLRTCPSLLDDCIDSVSVPKDMKSLLEHHTAKGNLQDSEGNNCTFSSQSLPPLVQVVISSDHTESGEPSDLNGQDNDDEQASKTSSDGWTIKKIKLKTETEEEDNDQNWPITEAKSTGTRDGYDDGCLGEEPNQTQS”, the protein production result is reported as “failed”.
As to “AIAPDSLYDSLECLSEKIEAEGLYTTFSSDKLVRRIKRSSETEKIILSRFLRARRFNVDSAFDSFLACLKFREAENVNSVGLDEFKNPLATFPFTTTGFCTFDGEPLLYGRASALDRFKIDPAIFHRGFISFLEFLGDTFEPSTMFVIIFDFTDFSPIRNVHFGCARDMLKVMQDFYPERLSKIFLVNYPSTLYGVYKIVSPFIDENTRSKLEWIPKNSLEQLLRYVSMEAIPYSIGGMAVYPVPPLSSQ”, the protein production entry is listed as “failed”.
“AIAREWKSQDAWKQHSLRLCFGVWPGTEFLHRPRAVHRRSGVVCSQMQTEDSHPETPQVPKESLQEEKDSSPATDASFIQSQDGKTVFLDRRTERRIQRGFVLTERGPRSIWKPAGTSSQRNERVPRRAAARGGAGPPDTTPQLATVRVLVLGANHVAQRLAELLSSHSRVCGCYFVSETTDEAAIESMKKYAYALPLRSALNDDEVVRVAEWVLADYVFLVPTGETHDDGVSLKDKERLERTLAQNRVTFMDENLTGLLLENPSLIDALFRARDSLEA”: the protein production result is given as “failed”.
“AIARGHGTYMDEDRLTASVAGQVERVNKLICVKPLKTRYNGEVGDVVVGRITEVQQKRWKVETNSRLDSVLLLSAVNLPGGELRRRSTQDELAMRDYLQEGDLISAEVQSIFSDGALSLHTRSLKYGKLGQGVLVYVSPSLVKRQKTHFHNLPCGASLILGNNGYVWLSPTPALQEEQAGGFYTSMEPVSLSDREVVSRLRNCLLALANQKVLLFDTSVLYCYEASLQHQIKDILKPEIMEEIVLETRQRLMEHEG”: the protein production entry is reported as “not failed”.
Turning to “AIASEVSCKKRDDYLEWPEYFMAVAFLSAQRSKDPNSQVGACIVNSENKIVGIGYNGMPNGCSDDVLPWRRTAENKLDTKYPYVCHAELNAIMNKNLTDVKGCSMYVALFPCNECAKLIIQAGIKEVIFMSDKYHDSDEATAARLLFNMAGVTFRKFIPKCSKIVIDFDSINSRPSQKLQ”, the protein production result is recorded as “failed”.
To “AIATDCEWFDMTWGSSASSGYCSQSDSDEHELELFYTARTSLRKSRKCRDKDEQSEVDWRKQDLSVTEIQQKVKEYNAQVNSNLFMVLNRDGSYTGFIKVQFKLARPVSLPPPRSVSSSSISSSCLGWDGGCQERTSFYLPRDTVKHLHISSSTRAREVIQALLNKFTVVDNPAKYSLYERSQRDNQVYLRKLADDECPLFLRLCAGPNEKVLSLVLKENETGEVNWDAFSFPELQNFLRILQREEEDHVRQIIRRYTLARDKMKEAMKNFSTPG” belongs “failed”; to “AIEVEKNNKGINLSFDIEFYPNSFQILQKEYKKIDLIAKLLEKFKKNNILIEGHTEQFGLEEEMHELSEKRARAIGNYLIKMKVKDKDQILFKGWGSQKPKYPKSSPLKAKNRRVEITILN”, “not failed”.
As for “AIKHVKGNGKRTLYIFSDPDCPYCQRLEKELTAVDNVTIYLFLFPLTTLHPNAETIATQIWCSKNQYQAWQDYLLNHKAPTASQKCSTPIQKNLALGQKLNINGTPTMYLKNGERIAGAMQAGQLNTLLDQAQ”, the protein production entry is “failed”.
For “ALAERRLFAELVDHSVVNVHVVDKDLRWLAVNRQARHDFHLLYGRTPEIGDYLPGLFEDGTAGQTPILPMWQRALAGEQFIEIGTFGKPPAVRHYELRFNALRDPKGEVQGAFLFAYDISERVQEQERLAKAEAALRQAQKMEAVGQLSGGIAHDFNNLLGGI”, the protein production entry was “failed”.
As for “ALPELRLEQFIITGASKRGWSAWLTAMADDRVIAIVPSVIDVADTSSMLEGLRKRYGGSWPLALWSYQAAEVLQQLGSPAFARLMALMDPMQYLDEPGARLKIPKYLVSASGDDFFAPDHATDYLQRLPGQTSLRVLPNSDHGGVRAHVVTTLVPMVQRIQASL”, the protein production entry is “failed”.
In the case of “ALSDGVHKIEFEHGTTSGKRVVYVDGKEEIRKEWMFKLVGKETFYVGAAKTKATINIDAISGFAYEYTLEINGKSLKKYMEDRSKTTNTWVLHMDGENFRIVLEKDAMDVWCNGKKLETAGEFVDDGTETHFSIGNHDCYIKAVSSGKRKEGIIHTLIVDNREIPEIAS”, the protein production result is given as “failed”.
In the case of “ANLYWFRADWFERPDLKKKFKDKYGYELGVPVNWSAYEDIAKFFSEDVKEIDGKKVFGHMDYGKKDPSLGWRFTDAWFSMAGSGDKGLPNGLPVDEWGIRVEDCHPVGSSITRGGDTNGPAAVFATQKYIDWLKAYAPPEAAGMTFSESGPVPSQGNVAQQIFWYTAFTADMTKPGLPVMNADGTPKWRMAPSPKGPYWKEGMKLGYQDVGSWTFLKSSDEKKRLAAWLYAQFVTSKSVSLKKTIVGLTPIRESDINS”, the protein production entry was “failed”.
Under “APIKGVTFGEDTVWEVQGYKNVRITFELDERVDKVLNEKCSVYTVESGTEVTEFACVVAEAVVKTLQPVSDLLTNMGIDLDEWSVATFYLFDDAGEENFSSRMYCSFYPPDE” stands “not failed”; under “APIPERAQVSVPGPVRVVDFDTPQSVALFVQPGIDRDDPDFFTAYILNHIIGGGGFESRLMQEVREKRGLTYGVYSYLLPKDLASIYMGSVASANDKIAEAVNVIRDVWRDVAANGVTAKELEDAKTYLTGAYPLRFDGNGRIANILAGMQIQGLPIDYIATRNDQVNAVTLEEINTFAAGFLDPEGLSFTVVGKPVGL”, “failed”; under “AQNEKNMYSYKKIGNKYIVSINNHTEIVKALNAFCKEKGILSGSINGIGAIGELTLRFFNPKTKAYDDKTFREQMEISNLTGNISSMNEQVYLHLHITVGRSDYSALAGHLLSAIQNGAGEFVVEDYSERISRTYNPDLGLNIYDFER”, “not failed”.
As to “AQNFSDYFTNKTLRIDYLFTGNADKQSICLDELSELPVWAGRRHHLSELPLEGNGQIVMRDVASGKVIYTTSFSSLFQEWLETDEAKEVTKGFENTYLLPYPIKPAEVEITLRNNKREVSANLKHVVKPDDILIHKKGLTHITPHKYLLKSGNEEQCIDVAILAEGYTTSEMETFYKDAAIACEALFSHEPFQSMKNRFNIVAVASPSADSGVSAPKQGAWKHTAFGSHFDTFYSDRYLTTSRVKAINDALAGIPYEHIIILANTEQYGGGGIYNAFTLTTAHHPNFRPVVVHEFGHSFGGLADEYFYDEDVMNGLYPLNIEPWEQNITTRINFASKWEDMLTKTTPVPTPVADKAKYPIGVYEGGGYSAKGIYRPAFDCRMRTNEYPTFCPVCQRAIQRIIEFYTGK”, the protein production entry is “not failed”.
Under “AQTPAQPQGKGIFQSVSEAIDAAHQAFLRYQQCPLKTRSAIISAMRQELTPLLATLAEESANETGMGNKEDKFLKNKAALDNTPGVEDLTTTALTGDGGMVLFEYSPFGVIGSVAPSTNPTETIINNSISMLAAGNSIYFSPHPGAKKVSLKLISLIEEIAFRCCGIRNLVVTVAEPTFEATQQMMAHPRIAVLAITGGPGIVAMGMKSGKKVIGAGNPPCIVDETADLVKAAEDIINGASFDYNLPCIAE” stands “failed”; under “ARHPDLVSCLTLLQAGDVAAFTVWKAARDPKGVLATPILGHVAMRRMAPKRMPAWYALSVGKADMISELCRCAERSFQHGAQWSLASAYQCYMDPAVELPRPHQPLLSIWGGADFSHPAGNEHSIRRLRPDAVCVTFDDLGHTPELEDPIRVFDAIVRFCEA”, “failed”; under “ARRPMNAFLLFCKRHRSLVRQEHPRLDNRGATKILADWWAVLDPKEKQKYTDMAKEYKDAFMKANPGYR”, “not failed”.
To “ASATETNTAPSADTQAPKPVNTVTSDVDCSVSAAWGLYKFNQKSNFSAEFEMPESVKAGTGFDALIKIKDISVSNDNLSGYKNAKLTKSSIRINVGKNVKLDGNQPGLSLSNGVLSINDHLKASLEGNSLRISAAPITVRLQALTEGTLTFIPEKTILTNTASVDGYTANTTCTTNADKPFATVKVDPADGLTITAPESASIKQDVQITATVPEKLNEKMDGKVQFFVNHIAAGDPVPVTEDNKASTSIIFDTSGSKTITARFIDAEGYNPAPDGETIIPVVTELDTKKPEDTDSYTGLINGSATSLLKPAKVMPGEKVSVSASLLPNKAPIRVYEIGINAPEDVKYIDGTGKTNYSSKLATTGSVFSSPGSGYYDPEWKNESKKPNESYRGFHSDTSYSVVDTSPQTVSAEFEIPKTLAPGIYMFQMGVYKYSNSLKDLVSIPETAFEIAGPDLPALPERKIKPQPEETPEVSDGSSTAKLVKSP” belongs “not failed”; to “ASIYKNKKSHEQLSALKGSFCRNQFPGQSEVEHLTKVTGLSTREVRKWFSDRRYHCRNLKGSR”, “not failed”.
